Data published in patent US20260109758A1 (BIOSION, published 2026).

Columns and labels:
[1] = target: T1, recombinant human TSLP-his (human, UniProt Q969D9 29-159, biotin-labeled in the ELISAs); assay: SPR Biacore; TSLP-his amine-coupled to CM5 chip, antibody as analyte; 1:1 Langmuir fit
T1 construct: In-house made; not shown: His tag at the C-terminus
Protocol: Un-reacted moieties on the biosensor surface were blocked with ethanolamine. Then, serially diluted purified bispecific antibodies and the controls (2-fold serial dilution in HBS-EP⁺ buffer starting at 100 nM) were respectively flowed onto the chip at a flow rate of 30 μL/min. The antigen-antibody association kinetics was followed for 4 minutes and the dissociation kinetics was followed for 13 minutes.

[2] = target: T2, recombinant human IL4Rα-his (human, UniProt P24394 26-231, limits assumed, biotin-labeled in the capture ELISA); assay: SPR Biacore T200; antibody captured on anti-human IgG CM5 chip, IL4Rα-his as analyte; 1:1 Langmuir fit
T2 construct: In-house made; not shown: His tag at the C-terminus
Protocol: The goat anti-human IgG (GE healthcare, Cat #BR100839, Human Antibody Capture Kit) was covalently linked to a CM5 chip (carboxy methyl dextran coated chip) via primary amines, using a standard amine coupling kit provided by Biacore (GE healthcare, Pittsburgh, PA, USA). Un-reacted moieties on the biosensor surface were blocked with ethanolamine. Then, purified bispecific antibodies of the disclosure at the concentration of 66.67 nM and the controls at 10 μg/mL, were flowed onto the chip at a flow rate of 10 μL/min. Then, serially diluted recombinant human IL4Rα-his (in house made, IL4Rα of SEQ ID NO: 33 with His tag at C-terminus) in HBS EP buffer (provided by Biacore) was flowed onto the chip at a flow rate of 30 μL/min. The association and dissociation curves were fit to a 1:1 Langmuir binding model using BIAcore evaluation software.

[3] = target: T2, recombinant human IL4Rα-his; assay: dual-binding ELISA: coated human IL4Rα-his, antibody titrated, detection with biotin human TSLP-his and SA-HRP; signal needs both antigens bound
Protocol: For the dual-binding ELISA, 96-well ELISA plates were firstly coated with 100 μL 1 μg/mL human IL4Rα-his protein (IL4Rα of SEQ ID NO: 33 with His tag at C terminus, prepared in-house) in PBS overnight at 4° C. ELISA plates were washed 4 times with wash buffer (PBS+0.05% Tween-20, PBST) and then blocked with 200 μL/well blocking buffer (5% w/v non-fatty milk in PBST) for 2 hours at 37° C. […] ELISA plates were washed again and incubated with SA-HRP (100 μl/well) for 40 minutes at 37° C. After the final wash, 100 μL/well TMB (Innoreagents) was added. The reaction was stopped 15 minutes later at room temperature with 50 μL/well 1M H₂SO₄, and the absorbance was read on a microplate reader using dual wavelength mode with 450 nm for TMB and 630 nm as the reference wavelength. The OD (450-630) values were plotted against antibody concentration. Data was analyzed using Graphpad Prism and EC₅₀ values were reported.

| Binder | Kd [1] | koff [1] | kon [1] | Kd [2] | koff [2] | kon [2] | EC50 [3] |
| --- | --- | --- | --- | --- | --- | --- | --- |
| BSI-502-003 (bispecific antibody, human IgG1, kappa, hu1C5F12E9-V8 IgG with an anti-IL4R scFv (huC2C1A1A1-V15, VH-VL) at the N-terminus of the heavy chain; AQQ and YTE already stand in the entry) heavy: EVQLVESGGGLVQPGGSLRLSCAASGFTFSTYGMSWVRQAPGKGLVWVATINSNGGSTSYPDSVKGRFTISRDNAKNTLYLQMNSLRAEDTAVYYCARFFRFRNAMDYWGQGTLVTVSSGGGGSGGGGSGGGGSGGGGSDIQMTQSPSSLSASVGDRVTITCRTSENIYSYLAWYQQKPGKAPKFLVYNAKTLAEGVPSRFSGSGSGTDFTLTISSLQPEDFATYYCQHYYGPPTWTFGQGTKVEIKGGGGSGGGGSQVQLVQSGAEVKKPGASVKVSCKASGYTFTTYWMHWVRQAPGQGLEWMGVIDPSDSDTTYNQKFKGRVTMTRDTSTSTVYMELSSLRSEDTAVYYCTRSLDGYYDYWGQGTLVTVSSASTKGPSVFPLAPSSKSTSGGTAALGCLVKDYFPEPVTVSWNSGALTSGVHTFPAVLQSSGLYSLSSVVTVPSSSLGTQTYICNVNHKPSNTKVDKKVEPKSCDKTHTCPPCPAPEAQGGPSVFLFPPKPKDTLYITREPEVTCVVVDVSHEDPEVKFNWYVDGVEVHNAKTKPREEQYNSTYRVVSVLTVLHQDWLNGKEYKCQVSNKALPAPIEKTISKAKGQPREPQVYTLPPSRDELTKNQVSLTCLVKGFYPSDIAVEWESNGQPENNYKTTPPVLDSDGSFFLYSKLTVDKSRWQQGNVFSCSVMHEALHNHYTQKSLSLSPG light: DIQMTQSPSSLSASVGDRVTITCRPTENIYSYLAWYQQKPGKAPKLLIYFARTLAEGVPSRFSGSGSGTDFTLTISSLQPEDFATYYCQHHYGTPWTFGGGTKVEIKRTVAAPSVFIFPPSDEQLKSGTASVVCLLNNFYPREAKVQWKVDNALQSGNSQESVTEQDSKDSTYSLSSTLTLSKADYEKHKVYACEVTHQGLSSPVTKSFNRGEC | 0.000317 nM | 1.82e-07 s⁻¹ | 574000 M⁻¹ s⁻¹ | 2.43 nM | 0.000534 s⁻¹ | 220000 M⁻¹ s⁻¹ | 0.0491 nM |
| BSI-502-002 (bispecific antibody, human IgG1, kappa, huC2C1A1A1-V15 IgG with an anti-TSLP scFv (VL-VH) at the C-terminus of the heavy chain; AQQ and YTE already stand in the entry) heavy: EVQLVESGGGLVQPGGSLRLSCAASGFTFSTYGMSWVRQAPGKGLVWVATINSNGGSTSYPDSVKGRFTISRDNAKNTLYLQMNSLRAEDTAVYYCARFFRFRNAMDYWGQGTLVTVSSASTKGPSVFPLAPSSKSTSGGTAALGCLVKDYFPEPVTVSWNSGALTSGVHTFPAVLQSSGLYSLSSVVTVPSSSLGTQTYICNVNHKPSNTKVDKKVEPKSCDKTHTCPPCPAPEAQGGPSVFLFPPKPKDTLYITREPEVTCVVVDVSHEDPEVKFNWYVDGVEVHNAKTKPREEQYNSTYRVVSVLTVLHQDWLNGKEYKCQVSNKALPAPIEKTISKAKGQPREPQVYTLPPSRDELTKNQVSLTCLVKGFYPSDIAVEWESNGQPENNYKTTPPVLDSDGSFFLYSKLTVDKSRWQQGNVFSCSVMHEALHNHYTQKSLSLSPGKGGGGSGGGGSDIQMTQSPSSLSASVGDRVTITCRPTENIYSYLAWYQQKPGKAPKLLIYFARTLAEGVPSRFSGSGSGTDFTLTISSLQPEDFATYYCQHHYGTPWTFGGGTKVEIKGGGGSGGGGSGGGGSGGGGSQVQLVQSGAEVKKPGASVKVSCKASGYTFTTYWMHWVRQAPGQGLEWMGVIDPSDSDTTYNQKFKGRVTMTRDTSTSTVYMELSSLRSEDTAVYYCTRSLDGYYDYWGQGTLVTVSS light: DIQMTQSPSSLSASVGDRVTITCRTSENIYSYLAWYQQKPGKAPKFLVYNAKTLAEGVPSRFSGSGSGTDFTLTISSLQPEDFATYYCQHYYGPPTWTFGQGTKVEIKRTVAAPSVFIFPPSDEQLKSGTASVVCLLNNFYPREAKVQWKVDNALQSGNSQESVTEQDSKDSTYSLSSTLTLSKADYEKHKVYACEVTHQGLSSPVTKSFNRGEC | < 0.0472 nM | < 1e-05 s⁻¹ | 212000 M⁻¹ s⁻¹ | 1.51 nM | 0.000487 s⁻¹ | 323000 M⁻¹ s⁻¹ | 0.136 nM |

Other lines, results leading:

| Kd [1] | koff [1] | kon [1] | Kd [2] | koff [2] | kon [2] | EC50 [3] | Binder |
| --- | --- | --- | --- | --- | --- | --- | --- |
| 0.00342 nM | 1.71e-06 s⁻¹ | 499000 M⁻¹ s⁻¹ | 2.43 nM | 0.000453 s⁻¹ | 186000 M⁻¹ s⁻¹ | 0.0652 nM | BSI-502-004 (bispecific antibody, human IgG1, kappa, hu1C5F12E9-V8 IgG with an anti-IL4R scFv (VL-VH) at the N-terminus of the heavy chain; AQQ and YTE already stand in the entry) heavy: DIQMTQSPSSLSASVGDRVTITCRTSENIYSYLAWYQQKPGKAPKFLVYNAKTLAEGVPSRFSGSGSGTDFTLTISSLQPEDFATYYCQHYYGPPTWTFGQGTKVEIKGGGGSGGGGSGGGGSGGGGSEVQLVESGGGLVQPGGSLRLSCAASGFTFSTYGMSWVRQAPGKGLVWVATINSNGGSTSYPDSVKGRFTISRDNAKNTLYLQMNSLRAEDTAVYYCARFFRFRNAMDYWGQGTLVTVSSGGGGSGGGGSQVQLVQSGAEVKKPGASVKVSCKASGYTFTTYWMHWVRQAPGQGLEWMGVIDPSDSDTTYNQKFKGRVTMTRDTSTSTVYMELSSLRSEDTAVYYCTRSLDGYYDYWGQGTLVTVSSASTKGPSVFPLAPSSKSTSGGTAALGCLVKDYFPEPVTVSWNSGALTSGVHTFPAVLQSSGLYSLSSVVTVPSSSLGTQTYICNVNHKPSNTKVDKKVEPKSCDKTHTCPPCPAPEAQGGPSVFLFPPKPKDTLYITREPEVTCVVVDVSHEDPEVKFNWYVDGVEVHNAKTKPREEQYNSTYRVVSVLTVLHQDWLNGKEYKCQVSNKALPAPIEKTISKAKGQPREPQVYTLPPSRDELTKNQVSLTCLVKGFYPSDIAVEWESNGQPENNYKTTPPVLDSDGSFFLYSKLTVDKSRWQQGNVFSCSVMHEALHNHYTQKSLSLSPG light: DIQMTQSPSSLSASVGDRVTITCRPTENIYSYLAWYQQKPGKAPKLLIYFARTLAEGVPSRFSGSGSGTDFTLTISSLQPEDFATYYCQHHYGTPWTFGGGTKVEIKRTVAAPSVFIFPPSDEQLKSGTASVVCLLNNFYPREAKVQWKVDNALQSGNSQESVTEQDSKDSTYSLSSTLTLSKADYEKHKVYACEVTHQGLSSPVTKSFNRGEC |
| < 0.0246 nM | < 1e-05 s⁻¹ | 407000 M⁻¹ s⁻¹ | 3.09 nM | 0.000497 s⁻¹ | 161000 M⁻¹ s⁻¹ | 0.0349 nM | BSI-502-001 (bispecific antibody, human IgG1, kappa, huC2C1A1A1-V15 IgG with an anti-TSLP scFv (hu1C5F12E9-V8, VH-VL) at the C-terminus of the heavy chain) heavy: EVQLVESGGGLVQPGGSLRLSCAASGFTFSTYGMSWVRQAPGKGLVWVATINSNGGSTSYPDSVKGRFTISRDNAKNTLYLQMNSLRAEDTAVYYCARFFRFRNAMDYWGQGTLVTVSSASTKGPSVFPLAPSSKSTSGGTAALGCLVKDYFPEPVTVSWNSGALTSGVHTFPAVLQSSGLYSLSSVVTVPSSSLGTQTYICNVNHKPSNTKVDKKVEPKSCDKTHTCPPCPAPEAQGGPSVFLFPPKPKDTLYITREPEVTCVVVDVSHEDPEVKFNWYVDGVEVHNAKTKPREEQYNSTYRVVSVLTVLHQDWLNGKEYKCQVSNKALPAPIEKTISKAKGQPREPQVYTLPPSRDELTKNQVSLTCLVKGFYPSDIAVEWESNGQPENNYKTTPPVLDSDGSFFLYSKLTVDKSRWQQGNVFSCSVMHEALHNHYTQKSLSLSPGKGGGGSGGGGSQVQLVQSGAEVKKPGASVKVSCKASGYTFTTYWMHWVRQAPGQGLEWMGVIDPSDSDTTYNQKFKGRVTMTRDTSTSTVYMELSSLRSEDTAVYYCTRSLDGYYDYWGQGTLVTVSSGGGGSGGGGSGGGGSGGGGSDIQMTQSPSSLSASVGDRVTITCRPTENIYSYLAWYQQKPGKAPKLLIYFARTLAEGVPSRFSGSGSGTDFTLTISSLQPEDFATYYCQHHYGTPWTFGGGTKVEIK light: DIQMTQSPSSLSASVGDRVTITCRTSENIYSYLAWYQQKPGKAPKFLVYNAKTLAEGVPSRFSGSGSGTDFTLTISSLQPEDFATYYCQHYYGPPTWTFGQGTKVEIKRTVAAPSVFIFPPSDEQLKSGTASVVCLLNNFYPREAKVQWKVDNALQSGNSQESVTEQDSKDSTYSLSSTLTLSKADYEKHKVYACEVTHQGLSSPVTKSFNRGEC |
